This data set in a line: label from the status in PepcDB records.
As for “MADVEIMQTVQTEVKKTTKKVKKSSKRRESEVQISEVEVDATIEERGGEYTKAMDKDWHSGHFCCWQCDESLTGQRYVIRDDHPYCIKCYENVFANTCEECNKIIGIDSKDLSYKDKHWHEACFLCFKCHLSLVDKQFGAKADKIYCGNCYDAQFASRCDGCGEVFRAGTKKMEYKTRQWHENCFCCCVCKTAIGTKSFIPREQEIYCAGCYEEKFATRCIKCNKVITSGGVTYKNEPWHRECFTCTHCNITLAGQRFTSRDEKPYCAECFGELFAKRCTACVKPITGIGGTRFISFEDRHWHHDCFVCASCKASLVGRGFITDGPDILCPDCAKQKLM”, the protein production entry is reported as “failed”.

Regarding “MADVGSLGTRLLRIVLGLCALVLVLLALYVSLGRQLVPLVAEYRQQLEDEAGKQLGIPVRIAELTGSWRGFEPLVVARDIQVGDGEQSLRLARVRLAPDLLGSLLARQVRIGSLELEGLKLTLREGEDGQWSLDGLPHSDKPSDPRKLLQFLLQTQRISLLDSQLEVAPRGSAALSLSAVGATLRSSSVGGQSLDARLQLPDGQPLALHAEGRIDSEDWPRSSARFYLSLPQSDWAQWLPAGLTQEWTIVRAKAGGDFWFDWRDGKAQRLVARLLAPQLKASYAARKPVEINDLGMNLFFDREAQGWKVRVGDLAANFGEQRWGEVELLLRRDQQNNEPHWKLQADRVDLTPLVPAIEALAPLPDAAAEWVAGLKPKGILHNLNADFWPQREVPERVSYATNLEKVGISAFHEVPAVENVSGTLTGTLAGGQLDASAQDFMLHLAKVFPEPWRYREARTRMFWSLDDRAFTLGSHLMRVEGEEGSLAGDMLIRLMRDPGAEDYMDLQVGLSDGDARFTAKYLPTQLPGMNKSLANWLKTAIRSGHVEQGYFQWQGSLNRGAAAEAHVMNLYFKVRDGELAYQPGWPALSKTVGEVFVEDSGVRVLASSGNLLNSRVSDVKVDIPLGRPGQTPHLYVDGAVDSNLKDGIKLLQEAPIPTRKIFAGWEGDGPLQGHLTLDIPLDHDEAGKTGVVVDFSTVGATLKMPSPKLDMSEVKGDFRFDLAKGLSAPAVQARVLGSEVRGRIVAEGRGDARTRLLLNGQVAVKSLSDWLGAGQRPLPVSGRLPFQLNLLLDGKDSQLQIDSDLKGAVVDLPAPFGKTAAQARPTQWRMTLDGAERRYWARYDGLASLAYAAPADKPLNGRGALRLGGDPALLPSAQGLRVRGRLAELDWDAWQATLKRYGNGDQAASSAAGLLRGADLRIDSFKGFGQELKNLTVDLARQERAWQLVLVSDLASGRLVLPDARGAPIVVDLDRLNLPKSTLPDENKVEDSDPLAAVDPRSLPAVDVKIGQVALGGQPLGAWSLKVRPGSNGVAFNDLDLDLRGLHVNGSLRWDGSPGNTRSTYQGRIEGKNLADVLKAWNFAPSATSERFRMDINGQWPGSPAYMALKRFSGSMDASLRKGQFVEVEGSAQALRVFGLLNFNAINRRLRLDFSDILGKGLSYDRVKGVLSATDGVYVTREPLKLEGPSSNLELNGTLDLAHDRIDAKLLVTLPLTNNLTLAALIVGGPAVGGAVFVVDKLLGDRVSRFASVQYSVKGPWQDPKISFDKPFEKPR”, the protein production result is given as “failed”.

For “MAEAANKNKPHKLIIDNRNSMSMTGVTKVISIDTDLVLLVTEQGKLKITGKNMQASTLDLDKGILELTGNFNTMVYSGEKEGALSLKSLFK”, the protein production entry was “failed”.

On to “MAEAKSRVGRPSGDTQNRDKLILAARNLFIERPYAQVSIREIASLAGTDPGLIRYYFGSKEKLFSTMIHETAMPVLAQLHKARRETRQESPAALLQTYYSVMSKHPHFPRLMLRIAGLDQSLPENAEVTKAFYEVVNFENIAIFQRLKDKNLLKDDVDAHCAQLSFFAMMVFPFIVPENLLERVGIELTPDFLQLLAEQNTRLLQRGLMDVKDERDE”, for which the protein production entry is reported as “not failed”.

In the case of “MAEAPPVSGTFKFNTDAAEFIPQERKTSGLNCGTQRRLDSSRIGRRNYSSSPPCHLPRHIPYEDISAVHQHSYASGSKPKSPQGFFQSSNKSLKNHGLQNQPWQKARNEKHQNRNKKAQGLSEQTSDTSSLESVARSESGTNPREHSPSESEKEVVIADPRGAKPKKAAQLTYNYGRGPKAKGRLRSEWGNRMSPKSEDENTRPVAISHTDSSDASCRKPVVDPCVCRRNEQRRYPQKRPPWEVEGARPRPGRNPPKQESQRHINAGPKTNMSPIPKDNLRERPTKSACDTGNLAVVSKSSRRVNQEKTAVRRQDPQVLSPFPRGKQNHMLKNVETHTGSLIEQLTTEKYECMVCCELVQVTAPVWSCQSCFHVFHLNCIKKWARSPASHADGQSGWRCPACQNVSAHVPNTYTCFCGKVKNPEWSRNEIPHSCGEVCRKKQPGQDCPHSCNLLCHPGPCPPCPAFTTKTCECGRTRHTVRCGQPVSVHCSNACENILNCGQHHCAELCHGGQCQPCRIILNQVCYCGSTSRDVLCGTDVGKSDGFGDFSCLKICGKDLKCGSHTCSQVCHPQPCQPCPRLPHLVRYCPCGQTPLSQLLEHGSNARKTCMDPVPSCGKVCGKPLACGSSDFIHTCEKLCHEGDCGPCSRTSVISCRCSFRTKELPCTSLKSEDATFMCDKRCNKKRLCGRHKCNEICCVDKEHKCPLICGRKLRCGLHRCEEPCHRGNCQTCWQASFDELTCHCGASVIYPPVPCGTRPPECTQTCARIHECDHPVYHSCHSEEKCPPCTFLTQKWCMGKHEELTIKKLWTFKETLDF”, the protein production result is recorded as “not failed”.

In the case of “MAEEKIKKSLLAADDSDDEYSRGDTVSDQTELSSILDKLSLEPKTEKKKLLVLSLSGLLLHRVHKKELRKKPKNRSPDASCGPNLVYKRPFAEEFMKFCLERFEVGIWSSACELVSSLNILIVTGPRECTDSGYKTLENRYKPLFFKDLSKVFKCFKGFSASNTIFIDDEPYKALRNPDNTGLFPMSYDASNIKDNLLDPEGELCSYLEGLAKSSDVQAYIKVHSFGRPMIDSSHPDWSFYSNVSKIVS”, the protein production result was “failed”.

Take “MAEEKKKKLSIIVFSGTIDKLMPVGILTSGAAASGYEVNLFFTFWGLQAITKRSLNSQQPPQIDKNYEQMGPIMMQKMQEMKYPMWHQLVQQAKEIGEVKVFACSTTMEFFGIKREDLAEFVDDVVGVATFLDRAEGGTTLFI”: the protein production entry is “not failed”.

Turning to “MAEEQQPSTDDETAAKSATTKQASPKAETDQSATQPVEDQPTATPEEVAALEKKAADFEDKYLRAEAEVQNMQARFQKEQATLIKYDGQQLAKDVLPVIDNLERALAVEASDDVAAQIKKGVQMTYDHLEDALKRNHVTEIAALGQTFDPTLHQAVQSVPAEDGQTAETVVNVLQKGYQLKDRVLRPAMVVVAQ”, the protein production entry was “failed”.

With “MAEGKPDEQLFQLLSGLLQQVESLTNTEEVELRSKIEALGLEVTKVPSKSAQHLNEVEIAKELDKLSAKLDDVDEMISSAIASDPQVQTLLSGTADVWMPVITAGAEERLNFTASLADDDDLSNKETTTDNTSSS”, the protein production result is “not failed”.

Turning to “MAEGSSLALPRVSASLHEPARAFSFRLDEGKSPWVEVVITIGSFPRCPEVTMMWPPPPTFSVFLLLLLSQVPSSRPQSPGTKKLRLVGPANRPEEGRLEVLHQGQWGTVCDDDFALQEATVACRQLGFESALTWAHSAKFGQGEGPIWLDNVRCLGTEDTLDQCGSNGWGVSDCRHSEDVGVVCHPRRQQGYHSEKVSNALGPQGRRLEEVRLKPILASAKRHSPVTEGAVEVRYEGHWRQVCDQGWTMNNSRVVCGMLGFPSQAPVNSHYYRKVWNLKMKDPKSRLNGLTKKNSFWIHRVDCLGTEPHLAKCQVQVAPGRGKLRPACPGGMHAVVNCVAGPHFQRQKPKPKRKESGAEELKVRLRSGAQVGEGRVEVLMNRQWGTVCDHRWNLISASVVCRQLGFGSAREALFGAQLGQGLGPIHLSEVRCRGYEQTIGDCLALEGSQNGCQHANDAAVRCNIPDMGFQNKVRLAGGRNSEEGVVEVQVEVNGVPRWGTVCSDHWGLTEAMVTCRQLGLGFANFAIKDTWYWQGTPEAKEVVMSGVRCSGTEMALQQCQRHGPVHCSHGSGRFSAGVACMNSAPDLVMNAQLVQETAYLEDRPLSMLYCAHEENCLSKSADHMDWPYGHRRLLRFSSQIYNLGRADFRPKAGRHSWIWHQCHRHYHSIEVFTHYDLLTLNGSKVAEGHKASFCLEDTNCPSGVQRRYACANFGEQGVAVGCWDTYRHDIDCQWVDITDVSPGDYIFQVVVNPTNDVAESDFSNNMIRCRCKYDGQRVWLHNCHTGDPYRPNAELSLEQEQRLRNNLI”, the protein production result is “failed”.

The values above are taken from a protein production outcome set (Wang et al. 2014).
